The values below come from paper PMC11687307, “The calcium-binding protein S100A1 binds to titin’s N2A insertion sequence in a pH-dependent manner” (The Journal of General Physiology, 2024).

Sequences and labels used below:
B1: S100A1 (mouse) (natural protein)
chain: MGSELESAMETLINVFHAHSGQEGDKYKLSKKELKDLLQTELSGFLDVQKDADAVDKVMKELDENGDGEVDFKEYVVLVAALTVACNNFFWETS
notes: S100A1, mouse; No tag is named; source: E. coli BL21(DE3), purified (Capto-Q anion exchange, phenyl Sepharose)
B2: UN2A, unique insertion sequence of the N2A region of titin (mouse, amino acids 8539-8655) (domain or fragment)
chain: DERKKQEKIEGDLRAMLKKTPALKKGSGEEEEIDIMELLKNVDPKEYEKYARMYGITDFRGLLQAFELLKQSQEEETHRLEIEELEKSERDEKEFEELVAFIQQRLTQTEPVTLIKD
notes: titin, mouse, UN2A region between Ig domains I80 and I81, amino acids 8539-8655; Gene synthesised by GeneArt; No tag is named; source: E. coli BL21(DE3) pLysS, purified (Capto-Q anion exchange, SEC)

Details in all cases: both partners purified
For experiment [1], the target named is B2. In words: SPR; UN2A immobilised on carboxyl sensor (OpenSPR), S100A1 injected at 5 to 100 µM; 25°C; 250 mM NaCl, 20 mM HEPES, 0.05% Tween; pCa 5, pH 7.4; 1:1 model.
Experiment [2] addresses B2. Briefly: SPR; UN2A immobilised on carboxyl sensor (OpenSPR), S100A1 injected at 5 to 100 µM; 25°C; 250 mM NaCl, 20 mM HEPES, 0.05% Tween; pCa 3, pH 7.4; 1:1 model. For orientation: SPR reads the build-up and loss of mass on a sensor chip optically.
Experiment [3] has as its target B2. In words: SPR; UN2A immobilised on carboxyl sensor (OpenSPR), S100A1 injected; 25°C; pCa 3, pH 6.5; 1:1 model.
Experiment [4] concerns the target B2. In words: SPR; UN2A immobilised on carboxyl sensor (OpenSPR), S100A1 injected at 5 to 100 µM; 25°C; 250 mM NaCl, 20 mM HEPES, 0.05% Tween; pCa 3, pH 6.0; 1:1 model.
The target in experiment [5] is B2. Briefly: SPR; UN2A immobilised on carboxyl sensor (OpenSPR), S100A1 injected at 5 to 100 µM; 25°C; 250 mM NaCl, 20 mM HEPES, 0.05% Tween; pCa 5, pH 6.0; 1:1 model.
In the experiment “S100A1 (mouse)” the target is B1. In words: co-IP; purified proteins, 500 µg each, with anti-S100A1 antibody overnight at 4°C, captured on magnetic beads; 250 mM NaCl, 20 mM HEPES, 1 mM Ca^2+, pH 6; SDS-PAGE, silver staining, densitometry.

As to B1, the Kd in experiment [1] came out at 285 µM; in experiment [2], 21.6 µM; in experiment [3] it was 9.95 µM; in experiment [4], 5 µM; in experiment [5] it was 174 µM.
B2: in the experiment with S100A1 (mouse), the “band intensity of UN2A relative to the S100A1 band (densitometry)” value was 25% and the “binding ratio of UN2A to S100A1 in the complex (densitometry)” value was about 0.25 UN2A per S100A1.

By Kd is commonly meant the free concentration of one partner at which half of the binding sites on the other are occupied at equilibrium, for simple one-to-one binding. A low value points to a tighter complex.
